T1: FcγRIIb extracellular domain with C-terminal His tag (human, UniProt P31994 43-217)
T1 construct: extracellular domain; also called FcgRIIb; 2b; not shown: His tag at the C terminus
T1 sequence (looked up): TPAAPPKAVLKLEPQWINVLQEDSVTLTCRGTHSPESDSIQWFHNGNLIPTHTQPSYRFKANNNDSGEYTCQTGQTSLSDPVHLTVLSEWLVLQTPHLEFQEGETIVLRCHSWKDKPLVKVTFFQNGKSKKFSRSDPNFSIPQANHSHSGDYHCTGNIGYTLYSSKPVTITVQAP


Biological target: T1, FcγRIIb extracellular domain with …
Experiment: SPR, relative binding, HoCon Ab = 100
Method: Analysis of interaction between objective antibody and the FcγR was carried out using Biacore T100 (GE Healthcare). HBS-EP+ (GE Healthcare) was used as the running buffer, and the measurement temperature was set to 25° C. Chips produced by immobilizing the antigen peptide by the amine coupling method to a Series S Sencor Chip CM5 (GE Healthcare), or alternatively, chips produced by allowing preliminarily biotinylated antigen peptides to interact with and immobilize onto a Series S Sensor Chip SA (certified) (GE Healthcare) were used. Antibodies of interest were captured onto an antigen peptide-immobilized chip, and allowed to interact to each FcγR diluted with running buffer. To regenerate and repeatedly use the chip, the antibodies captured on the chip were washed off by reacting 10 mM glycine-HCl, pH 1.5.

Binder	Ho/Con_2b
GpH7-B3 variant K326_20W/GpL16-k0 (antibody, human IgG1, kappa, also called Ho Ab K326_20W) heavy: not shown light: DIVMTQSPLSLPVTPGEPASISCQASESLVHSNRNTYLHWYLQKPGQSPQLLIYKVSNRFSGVPDRFSGSGSGTDFTLKISRVEAEDVGVYYCSQNTHVPPTFGQGTKVEIERTVAAPSVFIFPPSDEQLKSGTASVVCLLNNFYPREAKVQWKVDNALQSGNSQESVTEQDSKDSTYSLSSTLTLSKADYEKHKVYACEVTHQGLSSPVTKSFNRGEC	132 % of control
GpH7-B3 variant K334_02A/GpL16-k0 (antibody, human IgG1, kappa, also called Ho Ab K334_02A) heavy: not shown light: DIVMTQSPLSLPVTPGEPASISCQASESLVHSNRNTYLHWYLQKPGQSPQLLIYKVSNRFSGVPDRFSGSGSGTDFTLKISRVEAEDVGVYYCSQNTHVPPTFGQGTKVEIERTVAAPSVFIFPPSDEQLKSGTASVVCLLNNFYPREAKVQWKVDNALQSGNSQESVTEQDSKDSTYSLSSTLTLSKADYEKHKVYACEVTHQGLSSPVTKSFNRGEC	110 % of control
GpH7-B3 variant K334_03V/GpL16-k0 (antibody, human IgG1, kappa, also called Ho Ab K334_03V) heavy: not shown light: DIVMTQSPLSLPVTPGEPASISCQASESLVHSNRNTYLHWYLQKPGQSPQLLIYKVSNRFSGVPDRFSGSGSGTDFTLKISRVEAEDVGVYYCSQNTHVPPTFGQGTKVEIERTVAAPSVFIFPPSDEQLKSGTASVVCLLNNFYPREAKVQWKVDNALQSGNSQESVTEQDSKDSTYSLSSTLTLSKADYEKHKVYACEVTHQGLSSPVTKSFNRGEC	145 % of control
GpH7-B3 variant K334_04F/GpL16-k0 (antibody, human IgG1, kappa, also called Ho Ab K334_04F) heavy: not shown light: DIVMTQSPLSLPVTPGEPASISCQASESLVHSNRNTYLHWYLQKPGQSPQLLIYKVSNRFSGVPDRFSGSGSGTDFTLKISRVEAEDVGVYYCSQNTHVPPTFGQGTKVEIERTVAAPSVFIFPPSDEQLKSGTASVVCLLNNFYPREAKVQWKVDNALQSGNSQESVTEQDSKDSTYSLSSTLTLSKADYEKHKVYACEVTHQGLSSPVTKSFNRGEC	115 % of control
GpH7-B3 variant K334_05P/GpL16-k0 (antibody, human IgG1, kappa, also called Ho Ab K334_05P) heavy: not shown light: DIVMTQSPLSLPVTPGEPASISCQASESLVHSNRNTYLHWYLQKPGQSPQLLIYKVSNRFSGVPDRFSGSGSGTDFTLKISRVEAEDVGVYYCSQNTHVPPTFGQGTKVEIERTVAAPSVFIFPPSDEQLKSGTASVVCLLNNFYPREAKVQWKVDNALQSGNSQESVTEQDSKDSTYSLSSTLTLSKADYEKHKVYACEVTHQGLSSPVTKSFNRGEC	112 % of control
GpH7-B3 variant K334_07I/GpL16-k0 (antibody, human IgG1, kappa, also called Ho Ab K334_07I) heavy: not shown light: DIVMTQSPLSLPVTPGEPASISCQASESLVHSNRNTYLHWYLQKPGQSPQLLIYKVSNRFSGVPDRFSGSGSGTDFTLKISRVEAEDVGVYYCSQNTHVPPTFGQGTKVEIERTVAAPSVFIFPPSDEQLKSGTASVVCLLNNFYPREAKVQWKVDNALQSGNSQESVTEQDSKDSTYSLSSTLTLSKADYEKHKVYACEVTHQGLSSPVTKSFNRGEC	137 % of control
GpH7-B3 variant K334_08L/GpL16-k0 (antibody, human IgG1, kappa, also called Ho Ab K334_08L) heavy: not shown light: DIVMTQSPLSLPVTPGEPASISCQASESLVHSNRNTYLHWYLQKPGQSPQLLIYKVSNRFSGVPDRFSGSGSGTDFTLKISRVEAEDVGVYYCSQNTHVPPTFGQGTKVEIERTVAAPSVFIFPPSDEQLKSGTASVVCLLNNFYPREAKVQWKVDNALQSGNSQESVTEQDSKDSTYSLSSTLTLSKADYEKHKVYACEVTHQGLSSPVTKSFNRGEC	114 % of control
GpH7-B3 variant K334_10E/GpL16-k0 (antibody, human IgG1, kappa, also called Ho Ab K334_10E) heavy: not shown light: DIVMTQSPLSLPVTPGEPASISCQASESLVHSNRNTYLHWYLQKPGQSPQLLIYKVSNRFSGVPDRFSGSGSGTDFTLKISRVEAEDVGVYYCSQNTHVPPTFGQGTKVEIERTVAAPSVFIFPPSDEQLKSGTASVVCLLNNFYPREAKVQWKVDNALQSGNSQESVTEQDSKDSTYSLSSTLTLSKADYEKHKVYACEVTHQGLSSPVTKSFNRGEC	129 % of control
GpH7-B3 variant K334_13S/GpL16-k0 (antibody, human IgG1, kappa, also called Ho Ab K334_13S) heavy: not shown light: DIVMTQSPLSLPVTPGEPASISCQASESLVHSNRNTYLHWYLQKPGQSPQLLIYKVSNRFSGVPDRFSGSGSGTDFTLKISRVEAEDVGVYYCSQNTHVPPTFGQGTKVEIERTVAAPSVFIFPPSDEQLKSGTASVVCLLNNFYPREAKVQWKVDNALQSGNSQESVTEQDSKDSTYSLSSTLTLSKADYEKHKVYACEVTHQGLSSPVTKSFNRGEC	117 % of control
